The record followed here is patent CN114075288A (CHIA TAI TIANQING PHARMACEUTICAL GROUP CO LTD, dated 2022).

By EC50 is commonly meant the concentration needed to bring the measured effect to its halfway point. A lower EC50 goes with higher potency in that assay.

Assay [1] has as its target T1, 人PD-L2，稳定表达于U2OS细胞系 (PD-L2-U2OS) (human, UniProt Q9BQ51 20-273).
T1 sequence (looked up): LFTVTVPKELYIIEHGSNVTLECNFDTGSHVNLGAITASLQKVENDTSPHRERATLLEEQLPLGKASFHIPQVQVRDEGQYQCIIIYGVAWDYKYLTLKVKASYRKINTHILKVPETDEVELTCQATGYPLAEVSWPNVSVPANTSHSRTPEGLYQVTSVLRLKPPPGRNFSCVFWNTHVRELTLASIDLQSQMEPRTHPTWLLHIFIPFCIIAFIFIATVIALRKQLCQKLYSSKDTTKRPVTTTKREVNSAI
Briefly: cell-based or functional assay.

Assay [2] deals with T1, 人PD-L2，稳定表达于U2OS细胞系 (PD-L2-U2OS). As to the kind of experiment: flow cytometry on PD-L2-U2OS cells. A general note: Flow cytometry measures light scatter and fluorescence of single cells or particles in a stream.
The target of assay [3] is T2, hPD-L2-His (ACRObiosystems，目录号:PD2-H5220) (human, UniProt Q9BQ51 20-219).
T2 construct: Bought protein (ACRObiosystems PD2-H5220); also called 人PD-L2抗原; 重组体hPD-L2-His蛋白; not shown: His tag
T2 sequence (looked up): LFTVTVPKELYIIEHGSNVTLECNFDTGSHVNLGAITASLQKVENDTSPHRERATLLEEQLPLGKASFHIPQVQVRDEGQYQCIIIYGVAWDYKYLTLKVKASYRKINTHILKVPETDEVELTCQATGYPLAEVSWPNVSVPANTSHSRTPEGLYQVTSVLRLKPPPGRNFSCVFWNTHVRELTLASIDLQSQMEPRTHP
As to the kind of experiment: ELISA, coated hPD-L2-His. In general terms: ELISA stands for enzyme-linked immunosorbent assay.

B1: 嵌合14E7抗体 (antibody, human IgG1, kappa, V domains shown)
VH: QVQLQQSGPQLVRPGASVKISCKASGYSFTSYWMHWVKQRPGQGLDWIGMIDPSDSETRLNQKFKDKATLTVDKSSSTAYMQLSSPTSEDSAVYYCARWALQYFDYWGQGTTLTVSS
VL: DIVMTQSQKFMSTTVGDRVSITCKASQNVGAAVAWYQQKPGQSPKLLIYSASNRYPGVPDRFTGSGSGTDFTLTISNMHSEDLADYFCQQYRPYPFTFGGGTKLEIKR
notes: also called Xi14E7
As for B1, the “IC50(ng/mL), 化学发光信号, 基于细胞的抗体阻断分析” value in assay [1] turned out to be 342 ng/mL. In addition, in assay [2], the EC50 is 1.12 µg/mL.

B2: 嵌合7A7抗体 (antibody, human IgG1, kappa, V domains shown)
VH: EVQLQQSGPELVKPGASMKISCKASGYSFSGYTMNWVKQSLGKNLEWIGLISPYNGVTTYNQKFKGKASLTVDTSSNTAYMELLSLTSDDSAVYYCARGVTVPLRFDVWGAGTPVTVSS
VL: DIVMTQSPSSLTVTTGEKVTMSCKSSQSLLNSGNQKNYLTWYQQKTGQPPKLLIYWASTRESGVPDRFTGSGSGTDFTLTINNVQAEDLAVYYCQNDDSYPLTFGAGTKLELKR
notes: made in Expi-CHO; also called Xi7A7
B2 registered an EC50 in assay [2] of 0.43 µg/mL.

B3: 人源化7A7-1.1抗体 (antibody, human IgG1, kappa, V domains shown)
VH: QVQLVQSGAEVKKPGASVKVSCKASGYSFSGYTMNWVRQAPGQGLEWMGLISPYNGVTTYAQKFQGRVTMTVDTSTNTVYMELSSLRSEDTAVYYCARGVTVPLRFDVWGQGTLVTVSS
VL: DIQMTQSPSSLSASVGDRVTITCKSSQSLLNSGNQKNYLTWYQQKPGKAPKLLIYWASTRESGVPSRFSGSGSGTDFTLTISSLQPEDFATYYCQNDDSYPLTFGQGTKVEIKR
notes: human IgG1 / human kappa; also called Hz7A7-1.1
On to B3, for which the “IC50(ng/mL), 化学发光信号, 基于细胞的抗体阻断分析” value in assay [1] stood at 585 ng/mL. Moreover, the EC50 in assay [3] is 0.308 µg/mL; in assay [2] it was 0.613 µg/mL.

B4: 人源化7A7-2.1抗体 (antibody, human IgG1, kappa, V domains shown)
VH: QVQLVQSGAEVKKPGASVKVSCKASGYSFSGYTMNWVRQAPGQGLEWMGLISPYNGVTTYAQKFQGRVTMTVDTSTNTVYMELSSLRSEDTAVYYCARGVTVPLRFDVWGQGTLVTVSS
VL: DIQMTQSPSSLSASVGDRVTITCKSSQSLLQSGNQKNYLTWYQQKPGKAPKLLIYWASTRESGVPSRFSGSGSGTDFTLTISSLQPEDFATYYCQNDDSYPLTFGQGTKVEIKR
notes: human IgG1 / human kappa; also called Hz7A7-2.1
For B4, in assay [1], the “IC50(ng/mL), 化学发光信号, 基于细胞的抗体阻断分析” value was 144 ng/mL. In addition, the EC50 in assay [3] was 1.12 µg/mL; in assay [2] it was 0.924 µg/mL.

B5: 人源化7A7-1.2抗体 (antibody, human IgG1, kappa, V domains shown)
VH: QVQLVQSGAEVKKPGASVKVSCKASGYSFSGYTMNWVRQAPGQGLEWMGLISPYQGVTTYAQKFQGRVTMTVDTSTNTVYMELSSLRSEDTAVYYCARGVTVPLRFDVWGQGTLVTVSS
VL: DIQMTQSPSSLSASVGDRVTITCKSSQSLLNSGNQKNYLTWYQQKPGKAPKLLIYWASTRESGVPSRFSGSGSGTDFTLTISSLQPEDFATYYCQNDDSYPLTFGQGTKVEIKR
notes: human IgG1 / human kappa; also called Hz7A7-1.2
For B5, the “IC50(ng/mL), 化学发光信号, 基于细胞的抗体阻断分析” value in assay [1] turned out to be 374 ng/mL. Besides, the EC50 in assay [3] was found to be 0.68 µg/mL; in assay [2], 0.833 µg/mL.

B6: 人源化24A3-1.1抗体 (antibody, human IgG1, kappa, V domains shown)
VH: QVQLVQSGAEVKKPGASVKVSCKASGYAFTNYLIEWVRQAPGQGLEWMGVINPVNGGISYAQKFQGRVTMTADKSTSTVYMELSSLRSEDTAVYYCARSGGNYGGDYWGQGTLVTVSS
VL: DVVMTQSPDSLAVSLGERATISCKASQSVSNEVAWYQQKPGQPPKLLIYYASHRYTGVPDRFSGSGSGTDFTLTISSLQAEDVAVYYCQQHFSSPLTFGQGTKVEIKR
notes: human IgG1 / human kappa; also called Hz24A3-1.1
For B6, the “IC50(ng/mL), 化学发光信号, 基于细胞的抗体阻断分析” value in assay [1] came to 1950 ng/mL. For the same molecule, the EC50 came to 0.167 µg/mL in assay [3] and 1.05 µg/mL in assay [2].

B7: 人源化24A3-1.2抗体 (antibody, human IgG1, kappa, V domains shown)
VH: QVQLVQSGAEVKKPGASVKVSCKASGYAFTNYLIEWVRQAPGQGLEWMGVINPVQGGISYAQKFQGRVTMTADKSTSTVYMELSSLRSEDTAVYYCARSGGNYGGDYWGQGTLVTVSS
VL: DVVMTQSPDSLAVSLGERATISCKASQSVSNEVAWYQQKPGQPPKLLIYYASHRYTGVPDRFSGSGSGTDFTLTISSLQAEDVAVYYCQQHFSSPLTFGQGTKVEIKR
notes: human IgG1 / human kappa; also called Hz24A3-1.2
B7: the “IC50(ng/mL), 化学发光信号, 基于细胞的抗体阻断分析” value in assay [1] is 1420 ng/mL. Besides, the EC50 came to 0.223 µg/mL in assay [3] and 0.62 µg/mL in assay [2].

B8: 嵌合25G4抗体 (antibody, human IgG1, kappa, V domains shown)
VH: QVQLQQPGVEVVRPGAPVKLSCKASGYTFTTNWMNWVKQRPGRGLEWIGRIDPSDSETHYNQQFKDKATLTVDKSSNTAYIQLSSLTSEDSAVYYCVREGIYGPWFAYWGQGTLVTVSA
VL: DIVMTQSPASLAVSLGQRATISCRASESVDNYGISLMHWYQQKPGQPPKLLIYRASDLESGIPARFSGSGSRTDFTLTINPVETDDVATYYCQQSDKDPPTFGAGTKLELKR
notes: also called Xi25G4
Consider B8, for which the “IC50(ng/mL), 化学发光信号, 基于细胞的抗体阻断分析” value in assay [1] is 680 ng/mL. The EC50 in assay [2] was 0.54 µg/mL.

B9: 人源化14E7-1.1抗体 (antibody, human IgG1, kappa, V domains shown)
VH: QVQLVQSGAEVKKPGASVKVSCKASGYSFTSYWMHWVRQAPGQGLEWMGMIDPSDSETRYAQKFQGRVTMTVDKSTSTVYMELSSLRSEDTAVYYCARWALQYFDYWGQGTLVTVSS
VL: DIQMTQSPSTLSASVGDRVTITCKASQNVGAAVAWYQQKPGKAPKLLIYSASNRYPGVPSRFSGSGSGTEFTLTISSLQPDDFATYYCQQYRPYPFTFGQGTKVEIKR
notes: human IgG1 / human kappa; also called Hz14E7-1.1
As to B9, the “IC50(ng/mL), 化学发光信号, 基于细胞的抗体阻断分析” value in assay [1] came to 112 ng/mL. In addition, the results for the EC50 in assay [3] and in assay [2] were 0.115 µg/mL and 0.443 µg/mL, respectively.

B10: 人源化14E7-1.2抗体 (antibody, human IgG1, kappa, V domains shown)
VH: QVQLVQSGAEVKKPGASVKVSCKASGYSFTSYWMHWVRQAPGQGLEWMGMIDPSESETRYAQKFQGRVTMTVDKSTSTVYMELSSLRSEDTAVYYCARWALQYFDYWGQGTLVTVSS
VL: DIQMTQSPSTLSASVGDRVTITCKASQNVGAAVAWYQQKPGKAPKLLIYSASNRYPGVPSRFSGSGSGTEFTLTISSLQPDDFATYYCQQYRPYPFTFGQGTKVEIKR
notes: human IgG1 / human kappa; also called Hz14E7-1.2
On to B10, for which the IC50(ng/mL), 化学发光信号, 基于细胞的抗体阻断分析 in assay [1] was 2660 ng/mL. In assay [3], this molecule registered a half-maximal effective concentration (EC50) of 0.0333 µg/mL.

B11: 嵌合24A3抗体 (antibody, human IgG1, kappa, V domains shown)
VH: QVQLQQSGAEVVRSGTSVKVSCKASGYAFTNYLIEWVKQRPGQGLEWIGVINPVNGGISYNEKFKGKATLTADKSSSTVYMQLSSLTSDDSAVYFCIRSGGNYGGDYWGQGTTLTVSS
VL: DVVVTQTPKFLPVTAEDRVTITCKASQSVSNEVAWYQQKPGQSPKLLIYYASHRYTGVPDRFTGSGSGTDFTFTISSVQVEDLAVYFCQQHFSSPLTFGAGTKLELKR
notes: also called Xi24A3
As to B11, the “IC50(ng/mL), 化学发光信号, 基于细胞的抗体阻断分析” value in assay [1] was 221 ng/mL. In assay [2], this molecule yielded an EC50 of 0.967 µg/mL.

B12: 人源化25G4-1.1抗体 (antibody, human IgG1, kappa, V domains shown)
VH: QVQLVQSGAEVKKPGASVKVSCKASGYTFTTNWMNWVRQAPGQGLEWMGRIDPSDSETHYAQKFQGRVTMTVDKSTNTVYMELSSLRSEDTAVYYCVREGIYGPWFAYWGQGTLVTVSS
VL: DIQMTQSPSSLSASVGDRVTITCRASESVDNYGISLMHWYQQKPGKAPKLLIYRASDLESGVPSRFSGSGSRTDFTLTISSLQPEDFATYYCQQSDKDPPTFGQGTKVEIKR
notes: human IgG1 / human kappa; also called Hz25G4-1.1
As for B12, the “IC50(ng/mL), 化学发光信号, 基于细胞的抗体阻断分析” value in assay [1] was determined as 1000 ng/mL. For the same molecule, the results for the EC50 in assay [3] and in assay [2] were 0.0689 µg/mL and 0.483 µg/mL, respectively.

B13: 人源化25G4-1.2抗体 (antibody, human IgG1, kappa, V domains shown)
VH: QVQLVQSGAEVKKPGASVKVSCKASGYTFTTNWMNWVRQAPGQGLEWMGRIDPSESETHYAQKFQGRVTMTVDKSTNTVYMELSSLRSEDTAVYYCVREGIYGPWFAYWGQGTLVTVSS
VL: DIQMTQSPSSLSASVGDRVTITCRASESVDNYGISLMHWYQQKPGKAPKLLIYRASDLESGVPSRFSGSGSRTDFTLTISSLQPEDFATYYCQQSDKDPPTFGQGTKVEIKR
notes: human IgG1 / human kappa; also called Hz25G4-1.2
As for B13, the IC50(ng/mL), 化学发光信号, 基于细胞的抗体阻断分析 in assay [1] is 700 ng/mL. Further, the EC50 in assay [3] was determined as 0.0874 µg/mL.
